We go through 25 sequences from the supplement of paper PMC10201428.

Series [1] deals with VchCAST RNA-guided transposition machinery (E. coli BL21(DE3) host, lacZ target). Briefly: relative integration efficiency (T-LR orientation) vs wild-type transposon end (log2 (normalized fold change)); transposon end mutated: right end (5 bp flank + 75 bp right end); higher = more efficient transposition. The method in brief:
(§1)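 A T7-driven effector plasmid encoding a CRISPR array, tniQ-cas8-cas7-cas6 and tnsA-tnsB-tnsC was co-transformed into E. coli BL21(DE3) together with a pUC57 mini-transposon donor holding barcoded pools of 1549 left-end or 1849 right-end variants. Transformants were plated with 0.1 mM IPTG at 37°C for 18 h. Illumina sequencing of PCR-amplified input plasmids and genomic integration junctions gave barcode abundances, and relative integration efficiency is their output/input fold change, normalised to reference barcodes and log-transformed.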

The test system is the same in series [2]. Briefly: relative integration efficiency (T-RL orientation) vs wild-type transposon end (log2 (normalized fold change)); transposon end mutated: right end (5 bp flank + 75 bp right end); higher = more efficient transposition. The method in brief:
as §1

± gives the standard deviation of the averaged measurements.

With “ACATTTGTTGATACAACCATAAAATGATAATTACACCCATAAATTGATAATTAGACAACCCATAAATTGATATTGCCTCTGATCATAGTCAGACCAACATTGCTACGACCCGTATTCGCACCGACAC”, the entries for the “relative integration efficiency (log2)” value in series [1] and in series [2] were 0.737 ± 0.02 and -0.476 ± 0.18, respectively.
Turning to “ACATTTGTTGATACAACCATAAAATGATAATTACACCCATAAATTGATAATTAGACACAAACGCCCGGTCGCGGTAAGAGGATCATAGTCAGACCAACATTGCTACGACCCGTATTCGCACCGACAC”, the “relative integration efficiency (log2)” value was 2.66 ± 0.16 in series [1] and -0.538 ± 0.21 in series [2].
As to “ACATTTGTTGATACAACCATAAAATGATAATTACACCCATAAATTGATAATTATACACAAACGCCCGGTCGCGGTAAGAGGATCATAGTCAGACCAACATTGCTACGACCCGTATTCGCACCGACAC”, the “relative integration efficiency (log2)” value in series [1] is 2.63 ± 0.19; in series [2], -1.49 ± 0.49.
For the sequence “ACATTTGTTGATACAACCATAAAATGATAATTACACCCATAAATTGATAATTATACACCCCATAAATTGATATTGCCTCTGATCATAGTCAGACCAACATTGCTACGACCCGTATTCGCACCGACAC”, the “relative integration efficiency (log2)” value in series [1] was 1.28 ± 0.067; in series [2] it was -1.07 ± 0.23.
For “ACATTTGTTGATACAACCATAAAATGATAATTACACCCATAAATTGATAATTATACCACCCATAAATTGATATTGCCTCTGATCATAGTCAGACCAACATTGCTACGACCCGTATTCGCACCGACAC”, the “relative integration efficiency (log2)” value was 0.802 ± 0.067 in series [1] and -0.694 ± 0.23 in series [2].
For “ACATTTGTTGATACAACCATAAAATGATAATTACACCCATAAATTGATAATTATCAAAACACCCATAAATTGATATTGCCTCTGATCATAGTCAGACCAACATTGCTACGACCCGTATTCGCACCGA”, in that order: 2.29 ± 0.22 and -0.514 ± 0.17.
“ACATTTGTTGATACAACCATAAAATGATAATTACACCCATAAATTGATAATTATCAAACACCCATAAATTGATATTGCCTCTGATCATAGTCAGACCAACATTGCTACGACCCGTATTCGCACCGAC”: the figures for the “relative integration efficiency (log2)” value in series [1] and in series [2] were 1.9 ± 0.28 and -0.252 ± 0.046, respectively.
“ACATTTGTTGATACAACCATAAAATGATAATTACACCCATAAATTGATAATTATCAACAAACGCCCGGTCGCGGTAAGAGGATCATAGTCAGACCAACATTGCTACGACCCGTATTCGCACCGACAC”: the “relative integration efficiency (log2)” value is 2.49 ± 0.05 in series [1] and -0.451 ± 0.085 in series [2].
In the case of “ACATTTGTTGATACAACCATAAAATGATAATTACACCCATAAATTGATAATTATCAACAAACGCCCGGTCGCGGTACTCTGATCATAGTCAGACCAACATTGCTACGACCCGTATTCGCACCGACAC”, the “relative integration efficiency (log2)” value in series [1] is 2.66 ± 0.038; in series [2], -0.287 ± 0.0067.
With “ACATTTGTTGATACAACCATAAAATGATAATTACACCCATAAATTGATAATTATCAACAACATAAATTGATATTGCCTCTGATCATAGTCAGACCAACATTGCTACGACCCGTATTCGCACCGACAC”, the figures for the “relative integration efficiency (log2)” value in series [1] and in series [2] were 1.36 ± 0.2 and -0.911 ± 0.21, respectively.
Take “ACATTTGTTGATACAACCATAAAATGATAATTACACCCATAAATTGATAATTATCAACACCCATAAATTGATATTGCCTCTGATCATAGTCAGACCAACATTGCTACGACCCGTATTCGCACCGACA”: the “relative integration efficiency (log2)” value was 0.619 ± 0.036 in series [1] and -0.35 ± 0.052 in series [2].
Consider “ACATTTGTTGATACAACCATAAAATGATAATTACACCCATAAATTGATAATTATCAACCCCATAAATTGATATTGCCTCTGATCATAGTCAGACCAACATTGCTACGACCCGTATTCGCACCGACAC”, for which the “relative integration efficiency (log2)” value in series [1] was 1.26 ± 0.17; in series [2], -0.731 ± 0.18.
In the case of “ACATTTGTTGATACAACCATAAAATGATAATTACACCCATAAATTGATAATTATCACAAAACGCCCGGTCGCGGTAAGAGGATCATAGTCAGACCAACATTGCTACGACCCGTATTCGCACCGACAC”, the “relative integration efficiency (log2)” value in series [1] is 2.81 ± 0.094; in series [2], -0.437 ± 0.16.
Consider “ACATTTGTTGATACAACCATAAAATGATAATTACACCCATAAATTGATAATTATCACAAAACTAAATTGATATTGCCTCTGATCATAGTCAGACCAACATTGCTACGACCCGTATTCGCACCGACAC”, for which the “relative integration efficiency (log2)” value in series [1] is 2.45 ± 0.22; in series [2], -0.531 ± 0.15.
The matching figures for “ACATTTGTTGATACAACCATAAAATGATAATTACACCCATAAATTGATAATTATCACAAACATAAATTGATATTGCCTCTGATCATAGTCAGACCAACATTGCTACGACCCGTATTCGCACCGACAC”: 0.898 ± 0.13 and -0.114 ± 0.033.
For “ACATTTGTTGATACAACCATAAAATGATAATTACACCCATAAATTGATAATTATCACACAAATAAATTGATATTGCCTCTGATCATAGTCAGACCAACATTGCTACGACCCGTATTCGCACCGACAC”, in that order: 2.06 ± 0.028 and -1.11 ± 0.18.
On to “ACATTTGTTGATACAACCATAAAATGATAATTACACCCATAAATTGATAATTATCACACAACGAAATTGATATTGCCTCTGATCATAGTCAGACCAACATTGCTACGACCCGTATTCGCACCGACAC”, for which the “relative integration efficiency (log2)” value was 2.18 ± 0.14 in series [1] and -0.936 ± 0.18 in series [2].
For the sequence “ACATTTGTTGATACAACCATAAAATGATAATTACACCCATAAATTGATAATTATCACACAACGCCCGGTCGCGGTAAGAGGATCATAGTCAGACCAACATTGCTACGACCCGTATTCGCACCGACAC”, the “relative integration efficiency (log2)” value in series [1] was 2.32 ± 0.24; in series [2], -0.696 ± 0.091.
Turning to “ACATTTGTTGATACAACCATAAAATGATAATTACACCCATAAATTGATAATTATCACACCACGCAATTGATATTGCCTCTGATCATAGTCAGACCAACATTGCTACGACCCGTATTCGCACCGACAC”, the results for the “relative integration efficiency (log2)” value in series [1] and in series [2] were 2.1 ± 0.088 and -0.677 ± 0.11, respectively.
As for “ACATTTGTTGATACAACCATAAAATGATAATTACACCCATAAATTGATAATTATCACACCACGCCCGGTCGCGGTAAGAGGATCATAGTCAGACCAACATTGCTACGACCCGTATTCGCACCGACAC”, the “relative integration efficiency (log2)” value in series [1] was 2.46 ± 0.034; in series [2], -0.546 ± 0.089.
The matching figures for “ACATTTGTTGATACAACCATAAAATGATAATTACACCCATAAATTGATAATTATCACACCACTAAATTGATATTGCCTCTGATCATAGTCAGACCAACATTGCTACGACCCGTATTCGCACCGACAC”: 2.35 ± 0.27 and -0.503 ± 0.044.
The matching figures for “ACATTTGTTGATACAACCATAAAATGATAATTACACCCATAAATTGATAATTATCACACCCAGCCCGGTCGCGGTAAGAGGATCATAGTCAGACCAACATTGCTACGACCCGTATTCGCACCGACAC”: 2.65 ± 0.059 and -0.344 ± 0.16.
For the sequence “ACATTTGTTGATACAACCATAAAATGATAATTACACCCATAAATTGATAATTATCACACCCATAAAGGTCGCGGTAAGAGGATCATAGTCAGACCAACATTGCTACGACCCGTATTCGCACCGACAC”, the figures for the “relative integration efficiency (log2)” value in series [1] and in series [2] were 2.16 ± 0.14 and -0.82 ± 0.057, respectively.
As for “ACATTTGTTGATACAACCATAAAATGATAATTACACCCATAAATTGATAATTATCACACCCATAAATGTCGCGGTAAGAGGATCATAGTCAGACCAACATTGCTACGACCCGTATTCGCACCGACAC”, the results for the “relative integration efficiency (log2)” value in series [1] and in series [2] were 2.19 ± 0.15 and -0.671 ± 0.0087, respectively.
The matching figures for “ACATTTGTTGATACAACCATAAAATGATAATTACACCCATAAATTGATAATTATCACACCCATAAATTGAGCGGTAAGAGGATCATAGTCAGACCAACATTGCTACGACCCGTATTCGCACCGACAC”: 1.6 ± 0.023 and -0.428 ± 0.035.
